Source: PMC7547064, “High-resolution cryo-EM structure of urease from the pathogen Yersinia enterocolitica” (Nature Communications, 2020)

B1: Yersinia enterocolitica urease ureB protein (natural protein)
chain: MSTKTNSTKATSEKTDSLKTNRGTKSSAGYSDQNIPLGGCILADTPITFNENKPVTKVKVRNTGDRPIQVGSHFHFFEANRALEFDRAAAYGKRLNISSTTAIRFEPGDETEVPLIPFGGKQTLYGFNNLVDGWTGEGVVPNSERPDKLEAIRRAAERGFKSSK
notes: urease chain ureB of Yersinia enterocolitica; residues 31-162 were built in the cryo-EM model; the N-terminal extension was too disordered to be modelled; Native enzyme purified from the bacterium; source: purified from Y. enterocolitica cultures (Sephacryl S-300, Mono Q, SEC)
B2: Yersinia enterocolitica urease ureA protein (natural protein)
chain: MQLTPREVEKLMIYTLSDVAFKRKARGLKLNYPEAVSIITETAMEGARDGKSVEDVMKEASKVLTKDDVMDGVADLIPNVQVEAIFTDGSRLVTVHDPIK
notes: urease chain ureA of Yersinia enterocolitica; all residues of ureA (1-100) were built in the cryo-EM model; Native enzyme purified from the bacterium; source: purified from Y. enterocolitica cultures (Sephacryl S-300, Mono Q, SEC)
B3: Yersinia enterocolitica urease ureC protein (enzyme)
chain: MPQISRQEYAGLFGPTTGDKIRLGDTNLFIEIEKDLRGYGEESVYGGGKSLRDGMGANNHLTRDNGVLDLVITNVTIVDARLGVIKADVGIRDGKIAGIGKSGNPGVMDGVTPGMVVGVSTDAISGEHLILTAAGIDSHIHLISPQQAYHALSNGVATFFGGGIGPTDGTNGTTVTPGPWNIRQMLRSVEGLPVNVGILGKGNSYGRGPLLEQAIAGVVGYKVHEDWGATANALRHSLRMADEMDIQVSVHTDSLNECGYVEDTIDAFEGRTIHTFHTEGAGGGHAPDIIRVASQPNVLPSSTNPTLPYGVNSQAELFDMIMVCHNLNPNVPADVSFAESRVRPETIAAENVLHDMGVISMFSSDSQAMGRVGENWLRVMQTANAMKASRGKLPEDAPGNDNFRVLRYVAKITINPAIAQGVSHVIGSVEVGKMADLVLWDPRFFGAKPKMVIKGGMINWAAMGDPNASLPTPQPVFYRPMFGAMGKTMQDTCVTFVSQAALDDGVKEKAGLDRQVIAVKNCRTISKHDLVRNDQTPNIEVDPETFAVKVDGVHATCEPIDTAAMNQRYFFG
modifications: carbamylated Lys222
notes: urease chain ureC of Yersinia enterocolitica; residues 2-327 and 335-572 were built in the cryo-EM model; Native enzyme purified from the bacterium, with two Ni2+ ions in the active site; also called α-subunit containing the active site; source: purified from Y. enterocolitica cultures (Sephacryl S-300, Mono Q, SEC)
B4: Y. enterocolitica urease hetero-trimer formed by the three protein chains (ureA, ureB, ureC) (complex)
chain 1: MQLTPREVEKLMIYTLSDVAFKRKARGLKLNYPEAVSIITETAMEGARDGKSVEDVMKEASKVLTKDDVMDGVADLIPNVQVEAIFTDGSRLVTVHDPIK
chain 2: MSTKTNSTKATSEKTDSLKTNRGTKSSAGYSDQNIPLGGCILADTPITFNENKPVTKVKVRNTGDRPIQVGSHFHFFEANRALEFDRAAAYGKRLNISSTTAIRFEPGDETEVPLIPFGGKQTLYGFNNLVDGWTGEGVVPNSERPDKLEAIRRAAERGFKSSK
chain 3: MPQISRQEYAGLFGPTTGDKIRLGDTNLFIEIEKDLRGYGEESVYGGGKSLRDGMGANNHLTRDNGVLDLVITNVTIVDARLGVIKADVGIRDGKIAGIGKSGNPGVMDGVTPGMVVGVSTDAISGEHLILTAAGIDSHIHLISPQQAYHALSNGVATFFGGGIGPTDGTNGTTVTPGPWNIRQMLRSVEGLPVNVGILGKGNSYGRGPLLEQAIAGVVGYKVHEDWGATANALRHSLRMADEMDIQVSVHTDSLNECGYVEDTIDAFEGRTIHTFHTEGAGGGHAPDIIRVASQPNVLPSSTNPTLPYGVNSQAELFDMIMVCHNLNPNVPADVSFAESRVRPETIAAENVLHDMGVISMFSSDSQAMGRVGENWLRVMQTANAMKASRGKLPEDAPGNDNFRVLRYVAKITINPAIAQGVSHVIGSVEVGKMADLVLWDPRFFGAKPKMVIKGGMINWAAMGDPNASLPTPQPVFYRPMFGAMGKTMQDTCVTFVSQAALDDGVKEKAGLDRQVIAVKNCRTISKHDLVRNDQTPNIEVDPETFAVKVDGVHATCEPIDTAAMNQRYFFG
modifications: carbamylated Lys222
notes: urease chain ureA of Yersinia enterocolitica, as m1; residues 1-100 built; urease chain ureB of Yersinia enterocolitica, as m2; residues 31-162 built; urease chain ureC of Yersinia enterocolitica, as m3; residues 2-327 and 335-572 built; The asymmetric unit holds one copy each of ureA, ureB and ureC; Twelve such units form the holoenzyme, [[αβγ]3]4, with tetrahedral symmetry; also called basic …

What was measured:
[1] = molecular target: B3; assay: cryo-EM structure; single-particle cryo-EM of purified urease at 0.39 mg/ml, frozen in a buffer of pH 7.0; tetrahedral (T) symmetry imposed; map at 1.98 Å; no substrate or inhibitor; details: both partners purified
[2] = molecular target: the molecule itself; assay: as above

| Binder | binding result [1] | binding result [2] | stoichiometry N [2] |
| --- | --- | --- | --- |
| B1 | binds | binds |  |
| B2 | binds | binds |  |
| B3 |  | binds |  |
| B4 |  |  | 12 |
